# According to article PMC5996891, “Staphylococcus aureus Phenol-Soluble Modulins α1–α3 Act as Novel Toll-Like Receptor (TLR) 4 Antagonists to Inhibit HMGB1/TLR4/NF-κB Signaling Pathway” (Frontiers in Immunology, 2018):
# B1: recombinant disulfide HMGB1 protein (natural protein)
# chain: MGKGDPKKPRGKMSSYAFFVQTCREEHKKKHPDASVNFSEFSKKCSERWKTMSAKEKGKFEDMAKADKARYEREMKTYIPPKGETKKKFKDPNAPKRPPSAFFLFCSEYRPKIKGEHPGLSIGDVAKKLGEMWNNTAADDKQPYEKKAAKLKEKYEKDIAAYRAKGKPDAAKKGVVKAEKSKKKKEEEEDEEDEEDEEEEEDEEDEDEEEDDDDE
# modifications: disulfide bond between cysteines 23 and 45; reduced thiol on cysteine 106
# notes: high mobility group box-1 protein; also called high mobility group box-1 protein; source: recombinant, provided by Kevin Tracey (The Feinstein Institute for Medical Research)
# Biological target: recombinant human TLR4 protein (ectodomain, Glu24-Lys631) (human) (UniProt O00206)
# Assay: SPR; Biacore T200; TLR4 immobilised on a CM5 chip by amine coupling; HMGB1 or synthetic PSMs in 10 mM acetate buffer (pH 5.2) run over at gradient concentrations; 25°C, 30 µL/min; apparent KD
# Conditions: not given
# Sequence of recombinant human TLR4 protein (ectodomain, Glu24-Lys631) (human) (O00206 24-631): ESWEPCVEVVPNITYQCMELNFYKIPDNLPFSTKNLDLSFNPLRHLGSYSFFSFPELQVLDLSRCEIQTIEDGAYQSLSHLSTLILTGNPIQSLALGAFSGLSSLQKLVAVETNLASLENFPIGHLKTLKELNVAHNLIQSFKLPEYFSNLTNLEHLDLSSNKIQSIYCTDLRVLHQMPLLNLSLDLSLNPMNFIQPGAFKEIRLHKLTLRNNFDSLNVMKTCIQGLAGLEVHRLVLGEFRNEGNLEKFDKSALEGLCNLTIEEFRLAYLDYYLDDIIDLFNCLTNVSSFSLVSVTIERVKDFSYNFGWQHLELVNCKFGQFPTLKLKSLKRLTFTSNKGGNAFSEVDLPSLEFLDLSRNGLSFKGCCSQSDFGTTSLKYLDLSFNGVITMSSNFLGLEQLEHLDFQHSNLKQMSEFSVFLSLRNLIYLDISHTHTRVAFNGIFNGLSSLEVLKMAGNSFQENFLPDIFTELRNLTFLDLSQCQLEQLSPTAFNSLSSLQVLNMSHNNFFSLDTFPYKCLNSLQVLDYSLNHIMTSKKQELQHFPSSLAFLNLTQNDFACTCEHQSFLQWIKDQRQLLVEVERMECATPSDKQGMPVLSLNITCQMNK
row,Molecule,Kd
1,Staphylococcus aureus phenol-soluble modulin β2 (peptide),7.78 µM
2,Staphylococcus aureus phenol-soluble modulin α1 (peptide),3.81 µM
3,Staphylococcus aureus phenol-soluble modulin α2 (peptide),3.24 µM
4,Staphylococcus aureus phenol-soluble modulin β1 (peptide),3.79 µM
5,Staphylococcus aureus phenol-soluble modulin α3 (peptide),3 µM

# Biological target: T1, recombinant human TLR4 protein (ectodomain, Glu24-Lys631) (human, UniProt O00206 24-631)
# T1 construct: human toll-like receptor 4, Glu24-Lys631, the ectodomain with no transmembrane domain; followed by a C-terminal Ser and 10-His tag; also called hTLR4; toll-like receptor 4; source: bought: R&D Systems (Catalog Number 1478-TR); not shown: His10 (after a Ser), C-terminal, kept
# Assay: as above
# Conditions: both partners purified
# T1 sequence (O00206 24-631): as above
row,Molecule,Kd
1,B1,9.2 µM
